Reference: PMC4635569
Read-outs that look alike come from different tables or passages of the source.

What was measured:
[1] = target: His6-SUMO-tagged D39 PspC residues 37-140 (Streptococcus pneumoniae D39); test: SPR; PspC-derived proteins immobilised via N-terminal His6-SUMO tags on a Ni2+-loaded Biacore NTA chip (~150 RU); FH, rFH or rFH fragments flowed over (180 s, 100 μl/min, 1500 s dissociation); 25°C; 10 mM HEPES, 150 mM NaCl, 0.05% P20, pH 7.4, 50 μM EDTA; 1:1 binding model; equilibrium method for FH 8–9
[2] = target: plasma-derived human complement factor H (human) (UniProt P08603)
C3d C3d (Homo sapiens) = C3d C3d (Homo sapiens) (UniProt P01024); conditions: cited from earlier work
C3b C3b (Homo sapiens) = C3b C3b (Homo sapiens) (UniProt P01024); conditions: cited from earlier work
human C3d (human) = human C3d (human) (UniProt P01024); test: SPR; C3b (~250 RU) or C3d (~70 RU) amine coupled to adjacent flow cells of a Biacore C1 chip; FH preincubated with or without a 2-fold molar excess of PspCN injected (90 s, 30 μl/min, 400 s dissociation); 1:1 binding model
human C3b (human) [3] = target: human C3b (human) (UniProt P01024); test: as above
[4] = target: (D39)PspCN, D39 PspC residues 37-140 after removal of the His6-SUMO tag (Streptococcus pneumoniae D39); test: SEC-MALS; 4.6 μM in PBS of FH, PspCN or a 1:1 complex; Superose12 10/300 GL column, 0.4 ml/min
human C3b (human) [5] = target: human C3b (human) (UniProt P01024); test: SPR; C3b (~250 RU) or C3d (~70 RU) amine coupled to adjacent flow cells of a Biacore C1 chip; FH preincubated with or without a 2-fold molar excess of PspCN injected (90 s, 30 μl/min, 400 s dissociation); 1:1 binding model; remark: listed apart in the source

Sequence of human C3b (human) (P01024 23-667, chain 1 of 2): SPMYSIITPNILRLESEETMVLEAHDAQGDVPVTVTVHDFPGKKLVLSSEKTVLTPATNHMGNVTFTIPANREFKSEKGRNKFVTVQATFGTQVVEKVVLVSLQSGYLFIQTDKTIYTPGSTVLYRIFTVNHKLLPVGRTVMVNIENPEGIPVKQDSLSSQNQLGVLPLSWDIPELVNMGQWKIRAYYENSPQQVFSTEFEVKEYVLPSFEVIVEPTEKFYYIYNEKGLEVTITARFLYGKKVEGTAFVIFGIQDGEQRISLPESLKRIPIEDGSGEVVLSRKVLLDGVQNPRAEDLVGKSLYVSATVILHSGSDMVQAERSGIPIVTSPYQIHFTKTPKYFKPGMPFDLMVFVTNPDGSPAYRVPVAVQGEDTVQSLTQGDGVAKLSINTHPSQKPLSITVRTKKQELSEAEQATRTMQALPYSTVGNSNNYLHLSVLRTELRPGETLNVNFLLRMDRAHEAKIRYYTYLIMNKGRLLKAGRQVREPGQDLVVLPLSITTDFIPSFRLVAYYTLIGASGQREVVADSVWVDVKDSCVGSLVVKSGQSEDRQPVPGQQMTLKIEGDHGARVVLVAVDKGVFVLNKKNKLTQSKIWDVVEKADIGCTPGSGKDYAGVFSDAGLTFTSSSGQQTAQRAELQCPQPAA
Sequence of human C3b (human) (P01024 749-1663, chain 2 of 2): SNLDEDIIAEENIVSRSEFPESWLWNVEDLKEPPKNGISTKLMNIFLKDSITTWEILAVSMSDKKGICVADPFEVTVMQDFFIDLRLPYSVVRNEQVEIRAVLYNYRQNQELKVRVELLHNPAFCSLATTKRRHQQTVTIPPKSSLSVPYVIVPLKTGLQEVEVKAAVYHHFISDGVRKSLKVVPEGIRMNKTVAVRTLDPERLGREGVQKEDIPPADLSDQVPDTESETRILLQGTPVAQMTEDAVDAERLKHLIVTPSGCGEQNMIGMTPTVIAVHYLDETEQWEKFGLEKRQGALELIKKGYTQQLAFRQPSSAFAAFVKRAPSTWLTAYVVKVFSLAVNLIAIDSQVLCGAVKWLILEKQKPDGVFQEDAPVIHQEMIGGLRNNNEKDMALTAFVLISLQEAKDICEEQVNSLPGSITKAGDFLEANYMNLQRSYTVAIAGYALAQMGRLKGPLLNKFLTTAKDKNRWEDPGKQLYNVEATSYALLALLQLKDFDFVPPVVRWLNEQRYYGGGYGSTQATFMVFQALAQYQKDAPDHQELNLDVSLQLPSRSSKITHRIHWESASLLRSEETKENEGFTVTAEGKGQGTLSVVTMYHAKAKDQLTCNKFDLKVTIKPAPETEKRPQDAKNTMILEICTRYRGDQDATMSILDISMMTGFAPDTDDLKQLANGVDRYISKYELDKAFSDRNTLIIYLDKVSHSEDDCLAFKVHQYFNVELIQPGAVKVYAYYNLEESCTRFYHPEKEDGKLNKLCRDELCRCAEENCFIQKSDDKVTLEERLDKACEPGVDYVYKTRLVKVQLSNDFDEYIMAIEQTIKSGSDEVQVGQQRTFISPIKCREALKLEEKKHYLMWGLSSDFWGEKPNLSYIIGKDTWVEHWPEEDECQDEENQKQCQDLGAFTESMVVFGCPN
Sequence of human C3d (human) (P01024 1002-1303): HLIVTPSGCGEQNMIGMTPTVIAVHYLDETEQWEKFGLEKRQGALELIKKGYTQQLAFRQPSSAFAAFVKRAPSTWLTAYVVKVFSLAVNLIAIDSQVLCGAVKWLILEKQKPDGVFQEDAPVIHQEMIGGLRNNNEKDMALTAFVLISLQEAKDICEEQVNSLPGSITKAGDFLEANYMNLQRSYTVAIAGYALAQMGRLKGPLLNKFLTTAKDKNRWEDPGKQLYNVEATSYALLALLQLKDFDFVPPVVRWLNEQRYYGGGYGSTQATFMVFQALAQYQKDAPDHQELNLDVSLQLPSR
Sequence of C3d C3d (Homo sapiens) (P01024 1002-1303): as above
Sequence of C3b C3b (Homo sapiens) (P01024 566-670): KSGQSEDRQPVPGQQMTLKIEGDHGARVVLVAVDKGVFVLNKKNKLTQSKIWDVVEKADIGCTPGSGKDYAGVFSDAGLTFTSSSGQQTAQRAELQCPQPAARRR

**Q.** For FH 8–9 (domain or fragment), which Kd [1] is on record?
**A.** 30 nM

**Q.** With “(D39)PspCN, D39 PspC residues 37-140 after removal of the His6-SUMO tag (domain or fragment)” as the substance, how does the inhibition of acidified-serum lysis of PNH-like (AET-treated) human erythrocytes by increasing concentrations of (D39)PspCN; FH of the serum [2] read?
**A.** 28 nM

**Q.** Which Kd (C3d C3d (Homo sapiens)) does the source give for “Complement factor H CCP 19-20 (from UniProt P08603)” here?
**A.** 2000 nM

**Q.** What about the Kd (C3b C3b (Homo sapiens)) of the same substance?
**A.** 2000 nM

**Q.** Which Kd (human C3d (human)) does the source give for “(Tigr4)PspC_(37–179):FH complex (from UniProt P08603 19-1231)” here?
**A.** 1200 nM

**Q.** And the Kd (human C3b (human) [3])?
**A.** 280 nM

**Q.** For “plasma-derived human complement factor H (from UniProt P08603 19-1231) (natural protein)”, which dissociation over 30 min (off-rate) (% over 30 min) [1] is on record?
**A.** < 0.2

**Q.** What about the stoichiometry N [4] of the same substance?
**A.** 1 FH:PspCN

**Q.** Which results are given for “(D39)PspCN:FH complex (plasma-derived FH) (from UniProt P08603 19-1231)”?
**A.** Kd (human C3d (human)): 2300 nM; Kd (human C3b (human) [3]): 160 nM; ratio of KD values for FH versus FH-PspCN (human C3b (human) [3]): 2.04

**Q.** For FH 8–15 (domain or fragment), which Kd [1] is on record?
**A.** 1 nM

**Q.** What does the source list for “(D39)PspCN:FH(D1119G) complex (from UniProt P08603 19-1231)”?
**A.** Kd (human C3b (human) [5]): 330 nM; Kd (human C3b (human) [3]): 320 nM

**Q.** With “(D39)PspCN:rFH complex (from UniProt P08603 19-1231)” as the substance, how does the Kd (human C3d (human)) read?
**A.** 2200 nM

**Q.** What about the Kd (human C3b (human) [3]) of the same substance?
**A.** 280 nM
